Test results from patent US20040191303A1, “Use of selectin-binding pregnancy proteins, liposomes, native mucin fragments and mimetic compounds for the treatment and prophylaxis inflammatory diseases, for preventing metastatic spread and for the prophylaxis of tumour diseases” (priority 2000, published 2004).

B1: Serum PP14: gestation protein pp14 from serum of pregnant women (protein, UniProt P09466 19-180, looked up)
Glycodelin: MDIPQTKQDLELPKLAGTWHSMAMATNNISLMATLKAPLRVHITSLLPTPEDNLEIVLHRWENNSCVEKKVLGEKTENPKKFKINYTVANEATLLDTDYDNFLFLCLQDTTTPIQSMMCQYLARVLVEDDEIMQGFIRAFRPLPRHLWYLLDLKQMEEPCRF
B2: Urinary PP14: gestation protein pp14 from urine of pregnant women (protein, UniProt P09466 19-180, looked up)
Glycodelin: B1 Glycodelin
B3: Amniotic ✓-fetoprotein: α-fetoprotein from the amniotic fluid (protein, UniProt P02771 19-609, looked up)
Alpha-fetoprotein: RTLHRNEYGIASILDSYQCTAEISLADLATIFFAQFVQEATYKEVSKMVKDALTAIEKPTGDEQSSGCLENQLPAFLEELCHEKEILEKYGHSDCCSQSEEGRHNCFLAHKKPTPASIPLFQVPEPVTSCEAYEEDRETFMNKFIYEIARRHPFLYAPTILLWAARYDKIIPSCCKAENAVECFQTKAATVTKELRESSLLNQHACAVMKNFGTRTFQAITVTKLSQKFTKVNFTEIQKLVLDVAHVHEHCCRGDVLDCLQDGEKIMSYICSQQDTLSNKITECCKLTTLERGQCIIHAENDEKPEGLSPNLNRFLGDRDFNQFSSGEKNIFLASFVHEYSRRHPQLAVSVILRVAKGYQELLEKCFQTENPLECQDKGEEELQKYIQESQALAKRSCGLFQKLGEYYLQNAFLVAYTKKAPQLTSSELMAITRKMAATAATCCQLSEDKLLACGEGAADIIIGHLCIRHEMTPVNPGVGQCCTSSYANRRPCFSSLVVDETYVPPAFSDDKFIFHKDLCQAQGVALQTMKQEFLINLVKQKPQITEEQLEAVIADFSGLLEKCCQGQEQEVCFAEEGQKLISKTRAALGV
B4: Urinary ✓-fetoprotein: α-fetoprotein from urine (protein, UniProt P02771 19-609, looked up)
Alpha-fetoprotein: B3 Alpha-fetoprotein
B5: Serum ✓-fetoprotein: α-fetoprotein from the serum of pregnant women (protein, UniProt P02771 19-609, looked up)
Alpha-fetoprotein: B3 Alpha-fetoprotein

System: activated HUVEC
Assay: Adhesion inhibition test: HepG2 hepatoma cells to IL-1β activated HUVEC
Assay type: cell-based, human
Details: HepG2 cell adhesion
Method: The adhesion test described below is used in vitro to test the active substances.
HUVECs are isolated from veins of fresh human umbilical cords, used up to the 3rd passage, and cultured to confluence in 96-well titer plates for testing. Expression on HUVEC is induced by adding 0.2 ng of IL-1β per well, reaching its maximum after 4 hours. At this point, an adhesion test/adhesion inhibition test analogous to the one for immobilized E-selectin is performed.
The IC50 values (concentration of inhibiting agent for 50% inhibition of adhesion) are indicated.

Which IC50 does the source give for sialyl-Lewis x [sLe^x] here?
Its IC50 is 2300 µM.

System: cell adhesion
Assay: Testing of gestation proteins from various sources as adhesion blocker
Assay type: cell-based
Details: not given
Text: Testing of Gestation Proteins from Various Sources as Adhesion Blocker
The trophoblast culture line has been purchased and not subjected to genetic engineering.

With “Amniotic transferrin: transferrin recovered from the amniotic fluid” as the molecule, how does the Adhesion blocking read?
Its Adhesion blocking is “Yes”.

For “Serum Transferrin: transferrin from serum”, which Adhesion blocking is on record?
The Adhesion blocking was “No”.

With B1 as the molecule, how does the Adhesion blocking read?
The Adhesion blocking was “Yes”.

For B2, which Adhesion blocking is on record?
The Adhesion blocking was “Yes”.

How did the Adhesion blocking turn out when B3 was run?
Its Adhesion blocking is “Yes”.

How did the Adhesion blocking turn out when B4 was run?
Its Adhesion blocking is “No”.

B5 was tested. Which Adhesion blocking did it give?
Its Adhesion blocking is “Yes”.
